Source: US20130071400A1, “LINGO binding molecules and Pharmaceutical Use Thereof” (NOVARTIS AG, priority 2006, published 2013)

B1: IgG4 4784: monoclonal human anti-LINGO-1 IgG4 antibody; VL SEQ ID NO: 4, VH SEQ ID NO: 5 (antibody, V domains shown)
VH: QVQLKESGPALVKPTQTLTLTCTFSGFSLSSSGVGVGWIRQPPGKALEWLAHIGSDDDKYYSTSLKTRLTISKDTSKNQVVLTMTNMDPVDTATYYCARNQQYGDGYPGYFDYWGQGTLVTVSS
VL: DIELTQPPSVSVAPGQTARISCSGDNIGNYYVYWYQQKPGQAPVLVIYEDTNRPSGIPERFSGSNSGNTATLTISGTQAEDEADYYCQSYDNLHEQVFGGGTKLTVLG
modifications: IgG4; 4784 VH; 4784 VL
B2: IgG4 4785: monoclonal human anti-LINGO-1 IgG4 antibody; VL SEQ ID NO: 6, VH SEQ ID NO: 7 (antibody, V domains shown)
VH: QVQLQQSGPGLVKPSQTLSLTCAISGDSVSDNSAAWSWIRQSPGRGLEWLGLIYLRSKWDNDYAVSVKSRITINPDTSKNQFSLQLNSVTPEDTAVYYCARTGRADEFDVWGQGTLVTVSS
VL: DIVLTQPPSVSGAPGQRVTISCSGSSSNIGNNYVSWYQQLPGTAPKLLISRNSKRPSGVPDRFSGSKSGTSASLAITGLQSEDEADYYCSTYDTFSIVFGGGTKLTVLG
modifications: IgG4; 4785 VH; 4785 VL

Tested on: freshly isolated rat OPCs
Test: Primary oligodendrocyte differentiation assay
Type: cell-based
Settings: 100 nM IgG4, 3 days in DMEM/CNTF/T3 medium; three independent experiments (FIG. 5)
Experimental: A) Freshly isolated OPCs are treated with 100 nM 4784, 4785 or control IgG4 3207 for 3 days in DMEM/CNTF/T3 medium followed by staining with the anti-04 antibody to visualise immature and mature oligodendrocytes (larger, more diffuse labeling) and the nucleic acid dye DAPI (4′,6-diamidin-2′-phenyl-indol-dihydrochloride) to visualise cell nuclei (smaller circular dots). Oligodendrocytes bearing highly arborised and extended processes and myelin sheet-like structures are considered to have a mature morphology and are indicated with white arrows. Anti-LINGO-1 antibody treatment results in an increase in the proportion of O4-positive cells with a mature morphology whereas treatment with control IgG4 3207 has no effect.
B) The proportion of total (left graph) and mature (right graph) oligodendrocytes is quantified in three independent experiments (1, 2, 3). The left bar graph depicts the percentage of DAPI-stained nuclei associated with O4-staining and the right bar graph depicts the percentage of O4-positive cells with a mature morphology (mean of triplicates+STD). […]
Enriched populations of OPCs are isolated from OFA P3 rats. […] To assess the purity of the cultures with respect to the oligodendrocyte lineage, the percentage of cells that are stained with the anti-04 antibody is quantified after 7 days of culture in SATO medium. […]

Row | Molecule | proportion of oligodendrocytes (O4-positive cells) with a mature morphology
1 | B1 | significantly increase
2 | B2 | significantly increase
